Experimental findings from patent US20240327535A1 (EISAI R AND D MANAGEMENT, published 2024) are described below.

Where a chain is given by its changes, count along the chain named.

B1: AB214-ADL1-D2-02 (antibody, human IgG1, kappa, V domains shown)
VH: QVQLVQSGAEVKKPGSSVKVSCKASGGTFSNYWIHWVRQAPGQGLEWMGATYRSQSDTYYNQKYKSRVTITADKSTSTAYMELSSLRSEDTAVYYCARGAVYHGYDVIDNWGQGTLVTVSS
VL: DIQMTQSPSSLSASVGDRVTITCRASQSISSYLNWYQQKPGKAPKLLIYATSNLQIGVPSRFSGSGSGTDFTLTISSLQPEDFATYYCQQYRRIPWTFGQGTKLEIKR
modifications: ADL1-D2 linker-payload on cysteine residues of the antibody, DAR 4.12
B2: AB200-ADL5-D4-05 (antibody, human IgG1, kappa, V domains shown)
VH: B1 VH with I34M, S54G, Q55H, Y64F, S66G, V101I, H103D, I108L
VL: B1 VL with R24S, S28D, S31N, A50Y, Q55H, I56S, R93K, I94L
modifications: ADL5-D4 linker-payload on cysteine residues of the antibody, DAR 4.39
notes: antibody-drug conjugate
B3: AB217-ADL1-D2-02 (antibody, human IgG1, kappa, V domains shown)
VH: B1 VH with S30T, Q55H, N61A
VL: B1 VL with L33I, I56S
modifications: ADL1-D2 linker-payload on cysteine residues of the antibody, DAR 3.7
B4: AB200-(2Vk31)_R2-VH-v27 (Fab, V domains shown)
VH: B1 VH with D57T, Y64F
VL: B1 VL with Y91F, I94L
notes: also called AB200_VH2-27_VK2-31
B5: AB200-(2Vk31)_R2-VH-v20 (Fab, V domains shown)
VH: B1 VH with A50G, Q55H, Y59N, Y64F, V101I, D109E
VL: B1 VL with Y91F, I94L
notes: also called AB200_VH2-20_VK2-31
B6: AB200-(2Vk31)_R2-VH-v3 (Fab, V domains shown)
VH: B1 VH with S30T, A50G, Q55H, D57T, Y64F
VL: B1 VL with Y91F, I94L
notes: also called AB200_VH2-03_VK2-31
B7: AB200-(2Vk8)_R2-CDR1-hs-v4 (Fab, V domains shown)
VH: B1 VH with N31S, W33A, H35S, Y59F, Y64F
VL: B1 VL with L33I, Y91F, R93K, I94L, T97S
B8: AB200-(2Vk8)_R2-CDR2-hs-v2 (Fab, V domains shown)
VH: QVQLVQSGAEVKKPGSSVKVSCKASGGSFSNYWIHWVRQAPGQGLEWMGGIIPIFGTANYAQKFQGRVTITADKSTSTAYMELSSLRSEDTAVYYCARGAIFHGYDVIDNWGQGTLVTVSS
VL: B1 VL with L33I, Y91F, R93K, I94L, T97S
B9: AB200-(2Vk35)_R2-VH-v6 (Fab, V domains shown)
VH: B1 VH with S30T, Q55H, N61A
VL: B1 VL with L33I, I56S
notes: also called AB200_VH2-06_VK2-35
B10: AB214 (antibody, human IgG1, kappa, V domains shown)
VH: B1 VH
VL: B1 VL
notes: IgG1 kappa
B11: AB200 (antibody, human IgG1, kappa, V domains shown)
VH: B1 VH with I34M, S54G, Q55H, Y64F, S66G, V101I, H103D, I108L
VL: B1 VL with R24S, S28D, S31N, A50Y, Q55H, I56S, R93K, I94L
notes: IgG1 kappa
B12: AB216 (antibody, human IgG1, kappa, V domains shown)
VH: B1 VH with S54I
VL: B1 VL with L33I, I94L, T97S
notes: IgG1 kappa
B13: AB218 (antibody, human IgG1, kappa, V domains shown)
VH: B1 VH with D57T, Y64F
VL: B1 VL with Y91F, I94L
notes: IgG1 kappa
B14: AB217 (antibody, human IgG1, kappa, V domains shown)
VH: B1 VH with S30T, Q55H, N61A
VL: B1 VL with L33I, I56S
notes: IgG1 kappa
B15: AB215 (antibody, human IgG1, kappa, V domains shown)
VH: B1 VH with S30T, A50G, Q55H, D57T, Y64F
VL: B1 VL
notes: IgG1 kappa
B16: AB212 (antibody, human IgG1, kappa, V domains shown)
VH: B1 VH with A50G, Q55H, Y59N, Y64F, V101I, D109E
VL: B1 VL with Y91F, I94L
notes: IgG1 kappa
B17: AB213 (antibody, human IgG1, kappa, V domains shown)
VH: B1 VH with S30T, A50G, Q55H, D57T, Y64F
VL: B1 VL with Y91F, I94L
notes: IgG1 kappa
B18: AB200-(2Vk30)_R2-VH-v37 (Fab, V domains shown)
VH: B1 VH
VL: B1 VL
notes: also called AB200_VH2-37_VK2-30
B19: AB200-mcMMAF-05 (antibody, human IgG1, kappa, V domains shown)
VH: B1 VH with I34M, S54G, Q55H, Y64F, S66G, V101I, H103D, I108L
VL: B1 VL with R24S, S28D, S31N, A50Y, Q55H, I56S, R93K, I94L
modifications: mcMMAF (ADL10-MMAF) linker-payload on cysteine residues of the antibody, DAR 4.0
notes: antibody-drug conjugate; also called AB200-ADL10-MMAF
B20: AB200-(2Vk44)_R2-VH-v75 (Fab, V domains shown)
VH: B1 VH with S54I
VL: B1 VL with L33I, I94L, T97S
notes: also called AB200_VH2-75_VK2-44

T3 sequence (F7FFA0 entry or part of it): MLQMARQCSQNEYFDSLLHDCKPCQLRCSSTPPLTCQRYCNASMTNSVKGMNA

For the first assay, the target named is T1, human BCMA on NCI-H929, OPM2 and Raji cells (human, UniProt Q02223 1-184).
T1 construct: endogenous BCMA of human cell lines; also called TNFRSF17; CD269
T1 chain: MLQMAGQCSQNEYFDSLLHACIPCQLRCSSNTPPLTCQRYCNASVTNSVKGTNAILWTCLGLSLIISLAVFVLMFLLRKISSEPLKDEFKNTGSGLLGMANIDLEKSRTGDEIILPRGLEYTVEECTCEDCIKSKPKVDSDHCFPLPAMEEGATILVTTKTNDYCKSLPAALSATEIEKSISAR
The assay can be described thus: flow cytometry, NCI-H929 cells. For orientation: In flow cytometry, cells or beads pass a laser one at a time.
With B1, the Kd (as a rule, the free concentration of one partner at which half of the binding sites on the other are occupied at equilibrium, for simple one-to-one binding) came to 1.02 nM.

B2 came in with a Kd of 9.8 nM.

B3 came in with a Kd of 0.366 nM.

The target of the next assay is T2, extracellular domain of human BCMA (human, UniProt Q02223 1-54).
T2 construct: amine-linked to Octet AR2G tips; also called hsBCMA; BCMA (human)
T2 sequence: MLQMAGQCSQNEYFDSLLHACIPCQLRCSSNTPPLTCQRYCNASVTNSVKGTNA
Briefly: Octet BLI; Fab 200 nM. (Biolayer interferometry detects binding as a change in optical thickness at a sensor tip.)
On to B4, for which the affinity, expressed as Kd, was 7.13 nM.

On to B5, for which binding was characterised by a dissociation constant (Kd) of 42 nM.

Consider B6, for which the Kd was determined as 2.55 nM.

A further assay concerns the target T3, extracellular domain of rhesus monkey BCMA (rhesus monkey, UniProt F7FFA0 1-53).
T3 construct: extracellular domain; also called RhBCMA
Briefly: Octet BLI; Fab 200 nM.
In turn, B4 displayed a Kd of 15.3 nM.

In the case of B5, binding was put at a Kd of 93.8 nM.

With B6, the Kd turned out to be 5.73 nM.

Another assay has as its target T2, extracellular domain of human BCMA. The assay can be described thus: Octet BLI; Fab 200 nM. This is another data set of the same source.
As for B7, the affinity, expressed as Kd, was 591 nM.

In turn, B8 showed a Kd of 151 nM.

For the next assay, the target named is T3, extracellular domain of rhesus monkey …. The assay can be described thus: Octet BLI; Fab 200 nM. This is another data set of the same source.
The molecule B7 came in with a Kd of 773 nM.

For a further assay, the target named is T2, extracellular domain of human BCMA. Briefly: Octet BLI; Fab 200 nM. The source holds these as a separate data set.
Regarding B9, the Kd was 1.29 nM.

For a further assay, the target named is T3, extracellular domain of rhesus monkey …. The assay can be described thus: Octet BLI; Fab 200 nM. The source holds these as a separate data set.
As to B9, the Kd was 9.36 nM.

The target of a further assay is T1, human BCMA on NCI-H929, OPM2 and Raji …. Briefly: flow cytometry, OPM2 cells.
For the molecule B10, the affinity, expressed as Kd, was 2.12 nM.

For B11, the Kd worked out at 10 nM.

B12 showed a Kd of 2.27 nM.

B13 had a Kd of 0.687 nM.

Molecule B14 gave a Kd of 2.33 nM.

As for B15, binding was put at a Kd of 3.63 nM.

Molecule B16 came in with a Kd of 4.33 nM.

On to B17, for which binding was characterised by a dissociation constant (Kd) of 1.96 nM.

For a further assay, the target named is T2, extracellular domain of human BCMA. The assay can be described thus: Octet BLI; Fab 200 nM. This is another data set of the same source.
Molecule B18 gave a Kd of 0.81 nM.

The target of the next assay is T3, extracellular domain of rhesus monkey …. Briefly: Octet BLI; Fab 200 nM. This is another data set of the same source.
Take B18: the Kd stood at 6.05 nM.

For a further assay, the target named is T1, human BCMA on NCI-H929, OPM2 and Raji …. Briefly: flow cytometry, NCI-H929 cells. The source holds these as a separate data set.
Take B19: the Kd was in the range of 6 to 10 nM.

B2 returned a Kd of 6 to 10 nM.

The next assay has the same target. Briefly: cell-based or functional assay.
Take B1: the “GI50 (nM) OPM2.1, cell viability” value was 1.54 nM and the “LD50 (nM) OPM2.1, cell viability” value is 25.1 nM.

For B3, the “GI50 (nM) OPM2.1, cell viability” value was determined as 2.17 nM and the “LD50 (nM) OPM2.1, cell viability” value was 16.3 nM.

For another assay, the target named is T2, extracellular domain of human BCMA. The assay can be described thus: Octet BLI; Fab 200 nM. This is another data set of the same source.
B4 gave a Kd of 6.43 nM.

Regarding B18, the Kd amounted to 1.14 nM.

B9: the Kd is 1.66 nM.

With B5, the Kd came to 38.6 nM.

Turning to B20, the Kd was 1.07 nM.

B6 had a Kd of 2.7 nM.

The target in another assay is T3, extracellular domain of rhesus monkey …. The assay can be described thus: Octet BLI; Fab 200 nM. This is another data set of the same source.
In turn, B4 yielded a Kd of 13.9 nM.

With B18, the Kd is 6.33 nM.

B9 yielded a Kd of 9.6 nM.

Turning to B5, the Kd was found to be 79.3 nM.

The molecule B20 had a Kd of 5.53 nM.

The molecule B6 came in with a Kd of 5.03 nM.

Another assay concerns the target T1, human BCMA on NCI-H929, OPM2 and Raji …. The assay can be described thus: flow cytometry on NCI-H929 cells (BCMA high), fluorescent anti-human IgG1 secondary antibody, MFI against test article concentration.
Take B1: the EC50 (read off the curve) (as a rule, the concentration needed to bring the measured effect to its halfway point) is about 1 nM.

As to B19, the “EC50 (read off the curve)” value was about 6 nM.

With B2, the “EC50 (read off the curve)” value is about 9 nM.

Regarding B3, the “EC50 (read off the curve)” value was about 0.4 nM.

The target is the same in another assay. Briefly: flow cytometry, Raji cells.
Consider B10, for which the Kd came to 5.66 nM.

The molecule B11 had a dissociation constant Kd of 14 nM.

The molecule B12 gave an equilibrium dissociation constant (Kd) of 6.43 nM.

As to B13, binding was put at a Kd of 2.15 nM.

In the case of B14, the Kd worked out at 7.31 nM.

Molecule B15 registered a Kd of 11.2 nM.

B16 had a Kd of 16 nM.

As to B17, binding was put at a Kd of 8.83 nM.

The next assay has the same target. Briefly: flow cytometry on NCI-H929 cells (BCMA high), fluorescent anti-human IgG1 secondary antibody, MFI against antibody conc.
Take B10: the “EC50 (read off the curve)” value was about 3 nM.

In the case of B14, the “EC50 (read off the curve)” value was about 3 nM.

Take B15: the “EC50 (read off the curve)” value was about 7 nM.

As to B17, the “EC50 (read off the curve)” value is about 4 nM.

The target of the next assay is T2, extracellular domain of human BCMA. The assay can be described thus: Octet BLI; Fab 200 nM. The source holds these as a separate data set.
In turn, B20 registered a Kd of 0.8 nM.

In the next assay the target is T3, extracellular domain of rhesus monkey …. Briefly: Octet BLI; Fab 200 nM. This is another data set of the same source.
As to B20, the Kd is 5.22 nM.

The next assay addresses T1, human BCMA on NCI-H929, OPM2 and Raji …. The assay can be described thus: flow cytometry, NCI-H929 cells. The source holds these as a separate data set.
Turning to B10, the Kd was found to be 2.84 nM.

On to B11, for which the Kd was determined as 50.5 nM.

The molecule B12 came in with a Kd of 3.05 nM.

Molecule B13 gave a Kd of 0.987 nM.

B14: the Kd amounted to 3.38 nM.

With B15, the Kd came to 8.06 nM.

B16 gave a Kd of 9.68 nM.

With B17, the Kd is 4.26 nM.
